One may read the EC50 as the concentration that produces a half-maximal response. Usually Kd stands for a measure of binding affinity in units of concentration. A lower Kd goes with higher affinity. As a reminder, the koff is the first-order rate constant of dissociation. A low value points to slow dissociation. Usually kon stands for the rate constant with which the complex forms.

Three molecules from patent US20220251221A1 (AGENCY FOR SCIENCE TECHNOLOGY AND RESEARCH, published 2022) can be followed below.

One assay concerns the target T1, recombinant IL-2Rβ-Fc (Homo sapiens (Human), UniProt P14784 27-240).
T1 construct: also called CD122-Fc; not shown: Fc part of the fusion not described
T1 sequence: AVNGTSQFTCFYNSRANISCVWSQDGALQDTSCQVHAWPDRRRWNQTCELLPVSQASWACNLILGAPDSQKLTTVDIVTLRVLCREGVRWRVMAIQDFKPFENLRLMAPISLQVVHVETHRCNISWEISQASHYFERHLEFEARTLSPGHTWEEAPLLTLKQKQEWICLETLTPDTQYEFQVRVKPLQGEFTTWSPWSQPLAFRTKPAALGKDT
Kind of assay: ELISA on coated IL-2Rβ-Fc ('Binding to IL-2RB (Fc)'), biotinylated antibody, streptavidin-HRP, the axis is [Ab]/nM. Here is the method: (§1) Binding of P2C4/P1A3 to IL-2Rβ or γc was measured by ELISA analysis, using recombinant IL-2Rβ-Fc and γc-Fc coated on maxisorp plates.
(§2) Biotinylated P2C4/P1A3 was added at various concentrations. Detection of binding was performed using a colorimetric assay using HRP-conjugated streptavidin which converts TMB substrate to a blue solution. The reaction was stopped using hydrochloric acid, and absorbance was measured at 450 nm and 670 nm.
(An ELISA detects its analyte on a solid surface through an enzyme-linked reagent.)

The next assay deals with T2, recombinant γc-Fc (Homo sapiens (Human), UniProt P31785 23-262).
T2 construct: also called CD132-Fc; not shown: Fc part of the fusion not described
T2 sequence: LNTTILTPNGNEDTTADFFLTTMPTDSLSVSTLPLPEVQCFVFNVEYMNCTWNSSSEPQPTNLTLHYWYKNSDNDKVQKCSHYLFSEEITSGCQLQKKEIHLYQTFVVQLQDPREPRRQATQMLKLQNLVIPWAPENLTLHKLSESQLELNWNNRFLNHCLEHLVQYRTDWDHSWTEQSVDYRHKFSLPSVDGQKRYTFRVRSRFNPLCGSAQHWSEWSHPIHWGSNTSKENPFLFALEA
Kind of assay: ELISA on coated γc-Fc ('Binding to IL-2RG (Fc)'), biotinylated antibody, streptavidin-HRP, the axis is [Ab]/nM. How it is done:
as §1, §2

Another assay deals with T3, monomeric IL-2Rβ (Homo sapiens (Human), UniProt P14784 27-240, limits assumed).
T3 construct: Neither the limits nor the species of the construct are stated; also called CD122
T3 sequence: T1 sequence
Kind of assay: BLI, antibody captured on anti-human Fc biosensor tips, monomeric IL-2Rβ in solution, 1:1 Langmuir fit. How it is done: (§3) The affinity of binding of P2C4/P1A3 and P2C4/P1A10 to IL-2Rβ and γc was measured by Bio-Layer Interferometry (BLI).
(§4) P2C4/P1A3 or P2C4/P1A10 were captured on anti-human Fc biosensor tips, and 5 different concentrations of monomeric IL-2Rβ or γc were allowed to bind to the captured antibodies. Dissociation of the antigen from the immobilised antibodies was performed for 5 min. Binding affinity was calculated by fitting binding curves using the 1:1 Langmuir model.
On the technique in general: In BLI a coated tip is dipped into the sample, and binding shifts an interference pattern.

The next assay deals with T4, monomeric γc (Homo sapiens (Human), UniProt P31785 23-262, limits assumed).
T4 construct: Neither the limits nor the species of the construct are stated; also called CD132; common γ chain
T4 sequence: T2 sequence
Kind of assay: BLI, antibody captured on anti-human Fc biosensor tips, monomeric γc in solution, 1:1 Langmuir fit. How it is done:
as §3, §4

B1: P2C4_FW2/P1A3_FW2 (bispecific antibody)
chain 1: not shown
chain 2: EVQLVESGGGLVQPGGSLRLSCAASGGSFSGYYWSWVRQAPGKGLEWVSEINHSGSTNYNPSLKSRFTISRDNSKNTLYLQMNSLRAEDTAVYYCARSPGGYSGGYFQHWGQGTLVTVSSGGGGSGGGGSGGGGSDIQMTQSPSSLSASVGDRVTITCRSSQSLLHSNGYNYLDWYQQKPGKAPKLLIYLGSNRDSGVPSRFSGSGSGTDFTLTISSLQPEDFATYYCMQGTHWPWTFGQGTKVEIKNSGAGTAAATHTCPPCPAPEAAGGPSVFLFPPKPKDTLMISRTPEVTCVVVDVSHEDPEVKFNWYVDGVEVHNAKTKPREEQYNSTYRVVSVLTVLHQDWLNGKEYKCKVSNKALPAPIEKTISKAKGQPREPQVCTLPPSRDELTKNQVSLSCAVKGFYPSDIAVEWESNGQPENNYKTTPPVLDSDGSFFLVSKLTVDKSRWQQGNVFSCSVMHEALHNHYTQKSLSLSPGK
modifications: Biotinylated for the ELISA; site not given.
notes: also called scFv (P2C4_FW2): scFv (P1A3_FW2)-KiH-Fc
With B1, the EC50 with recombinant IL-2Rβ-Fc stood at 1.92 nM; with recombinant γc-Fc, 48.8 nM.

B2: P2C4/P1A10 bispecific anti-IL-2Rβ/γc antibody, scFv-KiH-Fc format (bispecific antibody)
chain 1: not shown
chain 2: QVQLQQSGAEVKKPGSSVKVSCKASGGTFSSYAISWVRQAPGQGLEWMGGFDPEDGETIYAQKFQGRVTMTEDTSTDTAYMELSSLRSEDTAVYYCATDLRIPYYYDNPWGQGTLVTVSSGGGGSGGGGSGGGGSEIVLTQSPLSLPVTPGEPASISCRSSQSLLHSNGYNYLNWYLQKPGQSPQLLIYLGSDRASGVPDRFSGSGSGTDFTLKISRVEAEDVGVYYCMQALQTPTTFGGGTKVEIKNSGAGTAAATHTCPPCPAPEAAGGPSVFLFPPKPKDTLMISRTPEVTCVVVDVSHEDPEVKFNWYVDGVEVHNAKTKPREEQYNSTYRVVSVLTVLHQDWLNGKEYKCKVSNKALPAPIEKTISKAKGQPREPQVCTLPPSRDELTKNQVSLSCAVKGFYPSDIAVEWESNGQPENNYKTTPPVLDSDGSFFLVSKLTVDKSRWQQGNVFSCSVMHEALHNHYTQKSLSLSPGK
With B2, in the assay with monomeric IL-2Rβ, the dissociation constant (Kd) was determined as 28.2 nM, the koff came out at 0.0044 s⁻¹ and the kon came to 156000 M⁻¹ s⁻¹. In the assay with monomeric γc, this molecule came in with a Kd of 61.8 nM, a dissociation rate constant (koff) of 0.00961 s⁻¹ and a kon of 156000 M⁻¹ s⁻¹.

B3: P2C4/P1A3 Crossmab (bispecific antibody, V domains shown)
VH 1: EVQLVQSGAEVKKPGSSVKVSCKASGYTFTNYYMHWVRQAPGQGLEWMGAIMPSRGGTSYPQKFQGRVTMTGDTSTSTVYMELSSLRSEDTAVYYCARGEYYYDSSGYYYWGQGTLVTVSS
VL 1: QSALTQPASVSGSPGQSIAISCTGTSSDIGHYDFVSWYQQHPGTAPKLIIYDINNRPSGISNRFSGSKSDNMASLTISGLQPEDEADYYCSAYTSSDTLVFGGGTKLTVL
VH 2: QVQLQQWGAGLLKPSETLSLTCAVYGGSFSGYYWSWIRQPPGKGLEWIGEINHSGSTNYNPSLKSRATISVDTSKNQFSLKLSSVTAADTAVYYCATSPGGYSGGYFQHWGQGTLVTVSS
VL 2: not shown
modifications: Biotinylated for the ELISA; site not given.
notes: also called Fab (P2C4): Fab (P1A3) in CrossMab format; copies: 1 + 1 + 1 + 1
On to B3, for which the EC50 stood at 0.772 nM with recombinant IL-2Rβ-Fc and 21.2 nM in the assay with recombinant γc-Fc.
